Test results taken from the DeepSol protein solubility set.

Assay: soluble on expression in E. coli; label from the status in PepcDB or PDB records
In the case of “MGSDKIHHHHHHMTQYIYLHGFASSPQSAKAQDIRQRFAQIHTQLTIPDLNAGEFSQLTITRQIQQIAATFPDDSVPITLIGSSLGGLTAAHLGQRYLQVQRLVLLAPAFGFLSHWLPKMGEGAVQSWQQNGYYPVYHYGEGTSLPLSYNFVTDAAQYQEDHIQRPIPTLILHGKHDEVIPITASRDFAHSRPWVELIELDSNHALGNVMEEIWQAISLFCQLPESGKI”, the “soluble on expression in E. coli” value is reported as “not soluble”. In the case of “MGSDKIHHHHHHMTRSTIGGKRFEPIPARFSSIGAGLMNIKQLEVLRTLLSTGSTIATAKAMGLSQSGISRLLAQLEADLSLTLFARDKGRLIPTPEAALLARDAENVLLAVDRMSGHAEDLRNGAAGPEIVRIGLPSSMWENFAPAMLIDYVRDFPGVRIETFFETTTAINKLVGERVIDLGFLRMEGEIGPGIDVERVATGKSVCVVREDHPLADLQEITVKDLRNIPLILIGRQRPNRMALDQVFKKAGVKPMVKIETHTNSSACAYVAHGLGVTIISSFYANLYRHLPVVARPFVPQATQEFGLARASGAPLSIAAQALSNALKREIQLSQKID”, the “soluble on expression in E. coli” value is reported as “not soluble”. For “MGSDKIHHHHHHMTRSVKRVAAIHDLSGFGRASLTAIIPIMSYMGIQVCPMPTAVLSTHTTDFHEYSFVDLTDSMQDFMNHWKKINLEFDAIYTGFLGSPRQVKIISDFVKEFSSDSTLVLIDPVMGDEGELYQTMNSEIVRSMRELIKSADIITPNFTEAAYLLDKDYNLELNEETIKEWILELANMGPDIVIMTSVPENKDKSTISVIAYEKKLNKFWKITSEYIPVSYPGTGDSFASAILGRILKGDNLPQAVGRGMQFITSAIKESYGFDYPTREGILIEKSLEVLNLPFMNGNYKLI”, the “soluble on expression in E. coli” value was “not soluble”. In the case of “MGSDKIHHHHHHMTSDVLVIAPFRRPTFRTAISHLYPVTEPWDSPPLITCGAIQEAGLEVDYVALQNIFNGYDPERDGRDLNEILGVLHPKVVIFSSDHFIPSRSTASIYGISLVSKIFKSRERPPLIGVCGRLATVAAQRLFAEVPEVDFAVIGESDGVIGEVVADLLAADMEETSRRHGYVHTRTAPARDIAYMGDVNDVALPAFALALPSIAQYRSRFGLEENPLPFSLRTSFGCKFKCRFCAGVPHWLDYRKKSPDRVQAELDAFLNQLGDQARISFLEDEIFTRDPEHVAAITALLKERNIYLDGLYTHSTLLTPEIAADLCTVADRVFTGLDNADDQILRKMGKGQLLDTVLDAVEKAQAASLKVHLEWIIGTPEETLDTLVTSLSTIFNLLSTHAVESINTYVYCPHPGTDYTVNAKKYRMRVLDTFDGIQESGGYPAFDTANLTRNQIYTAYLMSQLVIAEVTAARQHSSIPRAVVPASRSELLRLFGMIGEGQVAFDFDEAPVGRVSYPEGTSRA”, the “soluble on expression in E. coli” value is reported as “not soluble”. In the case of “MGSDKIHHHHHHMTSFVLSSKNAFDYLILQGLCTQNEKSLSKIELVPAKNFNLLISLPDNRKLLIKQEPHKREGKTSGEFLKEWRVHNFLQTFPELSDIRSYFSEAVHFDPENSIFVFNYLTNYRDLMDFYVERNLKLFPIKIAMLVGTTLASIHRLSIDRQEYQEFFLNKNIFGQGIPNLNLGMDRVSPAVFGKLPTDGLKFLSLYQRYDSLGQAIAELNNALIPCCLTHNDLKLNNILLSLNWEEAAFNESSSDESIIRLIDWERGAWGDPASDLGTLIASYLQLWLHSMITSKTMAIQESLRLATTPLHLLQPSIRELVIAYLSAFPEIIELHPDFLQRVMQFCGFALIKSIQAKLQHEKTFGNKGICILQVAKSLLCRPEASIPTIFGVDASDLSPINLSPASK”, the “soluble on expression in E. coli” value is reported as “not soluble”. With “MGSDKIHHHHHHMTSKLTEVSTPPQAAMPKSTLANEQENKVFIIGLPRTGTTSVSVALLEQGLTVAHQAFTKQAFMLADAVSDAPCFSDYQQLDKLFPNAKFVYLDRPLDKWLPSMQMLLGRMLVHLDKDKGRFHPVMKRSFNHCFDIWQVEDVFDEAHLTACYQRHQQQVMSYFAGRDDFISIDISVTGSLAKLLQFIDLAKPDTAEFRQLQYPQLQSQPQNFPQLNFPQLNFPQLNTGRNVASWDEYKHPNKISANASGPDKRKFFDYRL” the “soluble on expression in E. coli” value was “not soluble”. For “MGSDKIHHHHHHMTSTPHSPSEMFASIPGIFGFYPEESIVVLTLMHTKESCYQLGPVMRLDLKDLRYLSDIGDTLSAIEPDLVFGLIISGQKPEAIEDLRGLIEFVADCEIVPFDACWYTSAIESGGKYDAIWLNEAMTEAALEYQSWRKGRIPLIANTGITGEMIHAGHLPELSRKDIEKHYAQAEESEQWDEYLITERYAELFDDPSTSFRSAQECIDAFSQAVELMRTEKLITDAALTVAAFLKNKMSRDIIIECCVHNANTVKEALCYVSRHTKGFVRANALALYALCIVDSPWGNHITCVLQAAHNTLPFHHLTALVAEAYYRGLSGSIVDLVVSGSQEAQKHFGEATNVKSAV”, the “soluble on expression in E. coli” value was “not soluble”. For “MGSDKIHHHHHHMTTDSSNNRTISSKSTLSSKSIINVGPFTPHIEFIGQQQTPVIIIDDFGADLSQLIDIAIDDSQFNQDQGSYYPGQRAPLPKQYVIDVINAVYQLIYDTYKVPHSLRLKPQQCVFSVIDKPAQRLLPLQCMPHFDTPDPHYFAILHYLNNGDHGDTGFFRHNTTQYEQISPHNIDHYFNQAQPVVDAQQTLMPDYVVDSNDHYTLYHQVHYRPNRLVIYPGNLLHSTLVNPVTDIDSSPKTGRLTANIFINFK”, the “soluble on expression in E. coli” value was “not soluble”. With “MGSDKIHHHHHHMTTILHAMLGKGLGGLEQVFLDYQPILEAWAARRGGRCVGVVRKGGKMAVAQANRTPPLSAMPALTDWDPITVGAARALVKTYRPALIFSHGQRPARVFDKAAPADVVRAVCLHKPSFDVTPGTHYVCVGQHLAALAIERGAPADHVWLVPNAVKPPGVEAQPFAEAGRPIRIVAAGRLHPKKGFDVLIHAVGKLRAWDYEVTCEIAGEGDERGALEGLIRDLDLEASVTLKGWTGDVAGFLATGDLFAFPSHQEGFPLTLLEAMAVGLPVVASEIDGPLEILTDGRDGRLVPDNDPDRLAEALAELISDRETAVRLGAAARQQVLTEYSPQELARRLEAALDGMTSRA” the “soluble on expression in E. coli” value was “not soluble”. With “MGSDKIHHHHHHMTTLGIDHPLVCVRDLAAKRATYQSLGFLMKPPGMHPWGTSTALVIFRNQLLELVSIEDESLLDGYAAGSFRFGRHVEAWLAEREGVCLSALNSMDAEADEAAVLARGGSCAGTVEFGRDVVRDDGTPDRTKTTLKIFPHAGLPRLSMFACQQHRRDLIEFPDWMDHPNGAHGFASATILAAPSDQGRVRDWLSVLHGADAVRDTDWGFEVATTNGRWRVVSRATAPALLGKLPDGLASDGAPSVISLDIRCHALSQLRPFVEAGEFVCQDVNGALVLTEVARLGGILLSFHEIPKV” the “soluble on expression in E. coli” value was “not soluble”. With “MGSDKIHHHHHHMTTLKARLRQGQAITMIGNSLPDTYAAEMVASAGFDAVMIDLQHSAIGLHEVNDLARAVRAQGCAPVVRVAANDPAAITKVLDGGVDAVVAPMINSAEACRQFISACYYAPLGDRSFGPYLGQVIQRQSIQDYYAQTRDRLLPIAMIENEEGVRQAEQIMRTEGLGAIYVGASDLSIAMGMDCVPDYRNARLLDCIKGLIDLGERCGIPVGAFAPTLEDSLMLQSLGSRILWVGSDQGFIKAGCAARAQQYHAESSPRR” the “soluble on expression in E. coli” value was “not soluble”. For “MGSDKIHHHHHHMTTLPYFQPAASPASAGEGSASLSPVIALKDLVARLDREQRKAQELLASLGFALRSFTNLGQFLELIPLIASRVTDTEGSLLLTFRPDGRFWQAQLHCTDPRLAETLNRIPASLPVGTAPSGSPTEAIAEIDRQVQRCLGRNAQLFATAVLVRNQARGRLYVFSLDGQYSWNESRQKLVRLVADQTAVAIENDALTTELRQKERLDRELEIGAEIQLQLLPSQCPAIEGLEIAAACRTASRVGGDYYDFIPTRTHSDEQGRLQPDAGSPWAIAIGDIMGKGVPAGLIMTMLRGMLRAEVLNRHRPSRVLAHLNQVIYADLEHSNRFATLFYSEYDPSSRLLTFSNAAHNPPLLWQQATGTLKRLDTFGMMIGLEADNAYAEQHVQLQPGDVVLYYTDGLTDAADPRGNRFDEENVAIAFREACRRRLSAEALLADLFNRVQRFIGPDRHNEDDMTLVVLRAV”, the “soluble on expression in E. coli” value was “not soluble”. In the case of “MGSDKIHHHHHHMTTSKRVAIIGAGPSGLAQLRAFQSAAAKGEEIPEIVCFEKQDNWGGLWNYTWRTGLDENGEPVHCSMYRYLWSNGPKEGLEFADYSFEEHFGKQIASYPPRAVLFDYIEGRVLKANVRDWIRFSTAVRWIDYNDETGLFKVTVHDHTNDRVYSEEFDHVICASGHFSTPNVPHYEGFETFNGRLVHAHDFRDAREFAGKDILVVGSSYSAEDIGSQCWKYGAKSITSCYRSAPMGFKWPDNWEEKPALVKVDKNTVFFSDGTSREVDAIILCTGYKHFFNFLPDDLRLKTANRLATADLYKGVVYVHNPKMFYLGMQDQWFTFNMFDAQAWWVRDAIMGKIDLSNVTKEQMLADVTERETREEASDDVKYAIRYQADYVKELVAETDYPSFDIDGACEAFFQWKKHKGEDIMAFRNNSYTSVITGTLAPVHHTPWKDALDDSMEAYLRN”, the “soluble on expression in E. coli” value is reported as “not soluble”. In the case of “MGSDKIHHHHHHMTVDTRPAVGNPGYATSSPELERWLARHISEGFGAESLVLSMLRSGYDAAFARSAVATAMGHRRPDASATQPAPRLARREVPVLFSLQSPSIRLYQHLLSDAECDALVELARGRLARSPVINPDTGDENLIDARTSMGAMFQVGEHTLIQRIEDRIAAVLGVPVDHGEGLQILNYKPGGEYQPHFDFFNPKRPGEARQLRVGGQRTATLVIYLNTPQAGGATAFPRIGLEVAPVKGNAVYFSYLQPDGKLDERTLHAGLPVQSGEKWIATKWLREHPYRAGA”, the “soluble on expression in E. coli” value is reported as “not soluble”. In the case of “MGSDKIHHHHHHMTVSKTKAKLVDVARQLFAKMGVENTTMNDIALASKKGRRTLYTYFKSKDEIYLAVVESELDILSDMMKRVADKDISPDKKIIEMIYTRLDAVKEVVYRNGTLRANFFRDIWRVEKVRKRFDAKEMQLFKSVLKEGQDKGVFHVDDVEMTAALVHYCVKGIEVPYIRGHIGANLDMETRKRYVANIVFGALHRTEINQ”, the “soluble on expression in E. coli” value is reported as “not soluble”. For “MGSDKIHHHHHHMTVTILHEANSIDTDYVKRARLISDKFLELIILPTEQCNFRCTYCYEDFSIGRMQPETIAGIKAILDKRCPNLSYLNLAWFGGEPLVAKNIVLDISEYALSLVSKYPHLHYSSNMTTNGYLLDLNTASALANVGVTKYQISLDGPREIHNQSRIRADGKSTFERIWTNLLAIRDSSLPIYINLRLHFTIDTVKLIDPLLEDIKREFLPDSRFSVYFKSIERLGGTNDASIKIYSESEKNTAIKTLEAKLFGEKLQSPQNATLPDDYVCYASRPNSLVIRANGSVGKCTVALSDERNNIGTLRTDGRLDLIPGRFAPWVRGIQTLDPDVLGCPLVSLPTSDEIATNLQTKALAV”, the “soluble on expression in E. coli” value was “not soluble”. In the case of “MGSDKIHHHHHHMTVVEPNSDQKLDTAVATVLHEISSFQSFAVERDLEDVIERISKVFRISDIDAFRYYINKSISGLGKIYPLFNLEEVKEIDVNGYDEPVIVKLSDDNYYTTNIKLLANEVDSIAIRLAQLMGKKISTSDPLARGTLNNREVSITFGTEISPKGSSIRIARNDSGYDLKKFVESNGFSLESISYLKIAIENSKSIVIIGPHTELKYSALLFLMDLVDKEKKITYIGEKIPSRSPGNYIFMKTKEKSIFSSQIDRVSLINTAMRQRPDYIVIDTIEVVDLPSVIQAITTGHPTFTSIDIDSVSALVSAFSDSALDLGRDMVSVIDIVIEISESSDRISSIYEFDRFEHNDVLYDLVFSIDKTTEKLRYNGFSPMFRSMSNAMGKDDFHRYLENVRKITSELIENGLS”, the “soluble on expression in E. coli” value is reported as “not soluble”. With “MGSDKIHHHHHHMTWQVERIANEHLTLEVLPQIGASVLNLRAASGRPVLRPVNPAAVQTSSQCASFTLLPYSNRIRDARFSFQGREVLLRPTTKDGLAQHGDVRNRPWQVTRVADTHLRGDFDSRAFNDMNWPWAFTARVEYLLHGPHLDTSVTLTNVDTDEMPAGMGLHPYFTRRHGGRDPFLSFGAALTYDTDERQLPTGGPRTLHPEEDYQMPSSIGDRQLDRVYTAWDGRARLDWGERALTLTADAVYSHLVVFTAPDGSLALEPVTHATDAFNLAARGVSGTDMRTLLPGQSLAGTVRITLEGAW” the “soluble on expression in E. coli” value was “not soluble”.
